From EP4740964A1, “NANO DELIVERY SYSTEM, PREPARATION METHOD THEREFOR AND USE THEREOF” (Chen, Haiyan, priority 2023, dated 2025)

B1: CD22 IgG antibody (antibody, V domains shown)
VH: EVQLVQSGAEVKKPGASVKVSCKASGYRFTNYWIHWVRQAPGQGLEWIGGINPGNNYATYRRKFQGRVTMTADTSTSTVYMELSSLRSEDTAVYYCTREGYGNYGAWFAYWGQGTLVTVSS
VL: DVQVTQSPSSLSASVGDRVTITCRSSQSLANSYGNTFLSWYLHKPGKAPQLLIYGISNRFSGVPDRFSGSGSGTDFTLTISSLQPEDFATYYCLQGTHQPYTFGQGTKVEIKR
B2: CD19 IgG antibody (antibody, V domains shown)
VH: QVQLVQSGAEVKKPGSSVKVSCKASGYAFSSYWMNWVRQAPGQGLEWMGQIWPGDSDTNYAQKFQGRVTITADESTSTAYMELSSLRSEDTAVYYCARRETTTVGRYYYAMDYWGQGTTVTVSS
VL: DIQLTQSPSFLSASVGDRVTITCKASQSVDYSGDSYLNWYQQKPGKAPKLLIYDASNLVSGVPSRFSGSGSGTEFTLTISSLQPEDFATYYCQQSTENPWTFGGGTKLEIKR
B3: CD19 antibody antigen-binding fragment Fab (Fab, V domains shown)
VH: B2 VH
VL: B2 VL
notes: also called CD19 Fab

Tests used:
[1] = biological target: T1, CD22 on the surface of Raji cells (UniProt P20273 20-847, limits assumed); assay: flow cytometry on Raji cells, Alexa Fluor 488 anti-human IgG detection
T1 construct: whole, on cells; also called antigen CD22

[2] = biological target: T2, CD19 on the surface of Raji cells (UniProt P15391 20-556, limits assumed); assay: as above
T2 construct: whole, on cells; also called antigen CD19
T2 sequence (looked up): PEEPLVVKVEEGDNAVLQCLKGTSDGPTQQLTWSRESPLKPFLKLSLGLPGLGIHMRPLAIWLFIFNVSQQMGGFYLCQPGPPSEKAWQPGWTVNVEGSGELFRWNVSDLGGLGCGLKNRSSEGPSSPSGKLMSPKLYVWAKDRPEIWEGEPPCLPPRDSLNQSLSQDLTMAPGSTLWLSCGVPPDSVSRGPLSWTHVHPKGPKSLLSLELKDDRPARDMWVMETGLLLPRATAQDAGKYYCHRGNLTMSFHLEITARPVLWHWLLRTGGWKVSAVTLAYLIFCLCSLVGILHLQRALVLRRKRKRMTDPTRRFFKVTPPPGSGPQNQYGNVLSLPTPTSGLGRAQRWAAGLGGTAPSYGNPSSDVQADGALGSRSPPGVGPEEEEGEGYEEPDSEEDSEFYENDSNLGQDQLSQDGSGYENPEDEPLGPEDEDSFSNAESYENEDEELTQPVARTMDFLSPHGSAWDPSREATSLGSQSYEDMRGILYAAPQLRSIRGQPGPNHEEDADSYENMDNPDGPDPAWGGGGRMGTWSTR

Binder	binding result [1]	binding result [2]
B1	binds	–
B2	–	binds
B3	–	binds
